Values of other authors in PMC7674454.
pKd: −log10 of the molar value.

Molecular target: calbindin D9k EF2 EF-hand 2 (Bos taurus) (UniProt P02633)
Assay: SPR

calbindin D9k EF1 EF-hand 1 (from UniProt P02633)
pKd: 11.52
